Drawing on patent publication US20220177886, “[…] AGAINST CLOSTRIDIUM […], COMPOSITIONS COMPRISING […] AGAINST CLOSTRIDIUM […] AND METHODS OF USING THE SAME” (Biovector, Inc., published 2022), this text covers binding result and Kd for 15 molecules.

One series deals with CdeM (Clostridium difficile). Kind of series: pulldown. Conditions: tags: His-tagged (Ni-NTA). The procedure: (§1) The binding assay was performed by incubating fluorescently labeled aptamers (FAM) with the protein, and then spinning the tubes down in a microcentrifuge to remove unbound. The pellet was resuspended in selection buffer and spun down again. Bound aptamers were eluted by adding 6 M urea, and spinning again, retaining the supernatant. The aptamers were cleaned up with PCR cleanup columns and the fluorescence was read on a Tecan Sapphire II fluorometer. Excitation was at 497 nm, and emission was at 515 nm. The amount of fluorescence measured in the eluant was divided by the total amount of fluorescence of all fractions.
(§2) D1 CdeC: The original aptamer sequence was SEQ ID NO: 6, which binds to the CdeC protein from C. difficile. […] Two aptamers, D1.1 (SEQ ID NO: 38) and D1.2 (SEQ ID NO: 39), were designed to stabilize the structure observed in the analysis of the original sequence (FIG. 11). The CdeC protein self-aggregates in aqueous solutions making surface plasmon resonance analysis difficult. The protein forms large aggregates that are insoluble. The protein aggregates were combined as suspensions with the aptamers in solutions, allowed to incubate at room temperature for 15 min, and then spun down in a microcentrifuge to remove unbound aptamer. The complexes were washed with the appropriate selection buffer (50 mM Tris pH 7.6, 2.5 mM MgCl₂, 2.5 mM CaCl₂, 85 mM KOAc, 0.01% Tween 20, 0.01% BSA) once and the spin process was repeated. Finally, the bound aptamer was eluted from the protein structures with the addition of 6M urea. The protein aggregates were spun again, and this time the supernatant containing the eluted aptamers was retained. The aptamers were synthesized with a FAM label on the 5′ end for this analysis.
(§3) The CdeM protein is similar to the CdeC protein in that it forms aggregated balls when purified. An amount of protein equivalent to 1 E8 particles with 1 μM of each of the Em2, Em2.1 and Em2.2 aptamers in a total volume of 50 μL in the CdeM buffer was used. The mixture was allowed to incubate for 15 min at room temperature, then centrifuged. The supernatant was removed, and the pellet resuspended in CdeM buffer. This was centrifuged again and the wash process repeated once more.

Another series concerns the target CdeC (Clostridium difficile). Kind of series: pulldown. Conditions: tags: His-tagged (Ni-NTA). The procedure:
as §1, §2, §3

The target of series [1] is CotE (rCotE LS25, N281-F712) (Clostridium difficile). As to the kind of experiment: SPR. The settings on record: tags: His-tagged (Ni-NTA). The procedure: (§4) For CotE D2, CotE H2 and CotEC chitinase, aptamers were spotted on a gold surface at a concentration of 5 μM in PBS at a volume of approximately 10 nL in triplicate. Negative aptamers of the same length as the positive aptamers were spotted in the same manner, also in triplicate. Protein was then injected over the chip at a volume of 200 μL, with a flow rate of 50 μL/min in a Horiba (OpenPlex) surface plasmon resonance imaging (SPRi) instrument. Resonance due to binding was obtained by subtracting total resonance on the negative sequences from total resonance on the positive sequences. Disassociation values were computed with the following equation: dx/dt˜−kd*x, wherein dx/dt is the derivative of resonance values as a function of time and x is the resonance value for any given time point. Association values were computed with the following equation: dx/dt˜ka*c*Rmax−(ka*c+kd)*x, where x is the resonance due to binding at specific time points, c is the concentration of injectant, and Rmax is the maximum resonance observed.
(§5) Surface plasmon resonance imaging (SPRi) analysis of binding was performed with the various aptamers immobilized on a surface while the protein was flowed over at various concentrations.

For series [2], the target named is T1, CotA-His6 (Clostridium difficile, UniProt Q186G8 SEQ:1-305).
T1 sequence: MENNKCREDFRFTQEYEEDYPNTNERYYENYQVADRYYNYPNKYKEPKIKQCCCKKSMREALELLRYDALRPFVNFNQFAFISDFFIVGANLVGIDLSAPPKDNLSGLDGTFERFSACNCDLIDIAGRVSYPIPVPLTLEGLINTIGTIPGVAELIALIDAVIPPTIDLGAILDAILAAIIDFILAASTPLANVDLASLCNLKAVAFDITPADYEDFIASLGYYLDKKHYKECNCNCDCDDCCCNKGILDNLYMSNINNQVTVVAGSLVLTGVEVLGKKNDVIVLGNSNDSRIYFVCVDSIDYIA
As to the kind of experiment: SPR; 7.82E-08; protein immobilized. The settings on record: tags: His6; optimized potential G-quartet. The procedure: as §1, with “For CotA C1, the protein was immobilized on a hydrogel chip with EDC-mediated conjugation between primary amines on the protein (side chains on residues) and carboxylic acid groups on the surface of the chip. A protein of similar size was immobilized in the same manner as a negative control. […] For CdeC D1, the protein was received as aggregated, insoluble balls of protein. The binding” for “The binding”
A general note: In SPR one partner is held on a chip, and binding of the other changes the refractive index at the surface.

The next series has as its target HIV-1 p24 capsid protein (Human immunodeficiency virus 1, UniProt P04591 P04591:133-363). As to the kind of experiment: negative control protein; only aspecific fluorescence recovery, graphene oxide assay. The settings on record: tags: E. coli derived; RayBiotech 212-10004; label: 5'-FAM. The procedure: Once the quenched signal was stabilized, a fixed concentration of the target protein was added to the aptamer-GO mix (5 nM aptamer+0.5 ng/μL GO), and the recovery in quenched signal was recorded over time.
As negative control, a non-target protein at the same concentration (HIV cap protein P24) was added to the aptamer-GO mix.
Using 0.005% PEG in the buffer system, and 5 nM Fam-H2.1.2 with 0.5 ng/μL GO, the recovery of quenched signal was recorded after adding 50 nM of target protein (CotE) and 50 nM negative control protein (P24).

Series [3] has as its target CotEC chitinase (rCotEC, AB45, aa381-712 of CotE) (Clostridium difficile). As to the kind of experiment: SPR. Conditions: tags: His-tagged (Ni-NTA). The procedure:
as §4, §5

Series [4] has as its target T1, CotA-His6. Kind of series: SPR; 1.84E-08; protein immobilized. The settings on record: tags: His6. The procedure:
as §1, with “For CotA C1, the protein was immobilized on a hydrogel chip with EDC-mediated conjugation between primary amines on the protein (side chains on residues) and carboxylic acid groups on the surface of the chip. A protein of similar size was immobilized in the same manner as a negative control. […] For CdeC D1, the protein was received as aggregated, insoluble balls of protein. The binding” for “The binding”

For series [5], the target named is T1, CotA-His6. As to the kind of experiment: SPR; 5.21E-08; protein immobilized. The settings on record: tags: His6. The procedure: as §1, with “For CotA C1, the protein was immobilized on a hydrogel chip with EDC-mediated conjugation between primary amines on the protein (side chains on residues) and carboxylic acid groups on the surface of the chip. A protein of similar size was immobilized in the same manner as a negative control. […] For CdeC D1, the protein was received as aggregated, insoluble balls of protein. The binding” for “The binding”

B1: CdeM E2/Em2 (ssDNA)
DNA: CCAGTGTAGACTACTCAATGCCTTCCATTCACCTACCGAGCTAAGCGTTCGACTTAGGTCTGTACTATCCACAGGTCAACC
As for B1, the binding result with CdeM is “binds”.

B2: CdeC D1.2 (ssDNA)
DNA: ACTACTCAATGCCGTGGACTGGTCGGGTTTGGAATCGGCAGATGAATCAGTAGTAAA
In the case of B2, the binding result in the series with CdeC was “binds”. The Kd is a measure of binding affinity in units of concentration. Lower therefore signals a tighter complex. As to CTTGACCTTTGGAATGGGTGGGAGGGATGGGTACTATCCACAGGTCAACC (ssDNA) [CotE H2.1], binding in series [1] was characterised by a dissociation constant (Kd) of 17.5 nM.

B3: CdeM Em2.1 (ssDNA)
DNA: CTCAATGCCTTCCATTCACCTACCGAGCTAAGCGTTCGACTTAGGTCTGTACT
For the molecule B3, in the series with CdeM, the binding result is on record as “binds”. On to AATGGGTGGGAGGGATGGGTACTA (ssDNA) [CotE H2.2], for which, in series [1], the Kd is > 250 nM.

In the series with CotA-His6 [2], ACCCGTGGGACTGGGTCGGGTCGGG (ssDNA) [CotA C1.3] yielded a Kd of 78.2 nM.

Consider CTTGACCTTTGGAATGGGTGGGAGGGAGGGTATCCACAGGTCAACC (ssDNA) [FAM-CotE H2.1.2], for which, in the series with HIV-1 p24 capsid protein, the binding result is “no binding”. With CTTGACCTTTGGAATGGGTGGGAGGGAGGGTATCCACAGGTCAACC (ssDNA) [CotE H2.1.2], in series [1], binding was put at a Kd of 7.52 nM.

B4: CotEC Chitinase D11.1 (ssDNA)
DNA: AACTGCCTGGTAAATCGATGACCGCTGCCTCGCCTGAGTAATCATCGTACTATCCACAGGTC
In series [3], B4 yielded a Kd of 295 nM.

B5: CotE D2.2 (ssDNA)
DNA: ACTACTCAATGCTCGACATTTCCGCCCCGACGGCCCTCCTAGTGATGGGGAGAGTAGA
For B5, the dissociation constant Kd in series [1] amounted to 207 nM.

B6: CdeC D1 (ssDNA)
DNA: CCAGTGTAGACTACTCAATGCCGTGGACTGGTCGGGTTTGGATTCGGCAGATGAATCAGTAGTACTATCCACAGGTCAACC
For B6, the binding result with CdeC is “binds”.

B7: CotE H2.1.1 (ssDNA)
DNA: CTTGACCTTTGGAATGGGTAGGGAGGGAGGGATACTATCCACAGGTCAACC
As to B7, in series [1], the Kd is > 250 nM.

B8: CotE D2.1 (ssDNA)
DNA: ACTACTCAATGCTCGACATTTCCGCCCCGACGGCCCTCCTAGTGAGGGGAGAGTAGA
Turning to B8, the Kd in series [1] stood at 34.1 nM. In turn, ACTCAAGGCCGTGGACTGGTCGGGTTTGGATTCGGCAGATGAATCACT (ssDNA) [CotA C1.1] registered a Kd in the series with CotA-His6 [4] of 18.4 nM. In the series with CotA-His6 [5], ACTCAAGGCCGTGGACTGGTCGGGTTTGGAT (ssDNA) [CotA C1.2] yielded a Kd of 52.1 nM.
